{"source": "paper PMC9884143", "about": "(2023)", "binders": {"B1": {"name": "CoV2-YD-2 (antibody, V domains shown)", "VH": "QVQLVESGGGLVQPGGSLRLSCSISGFSFGYSAIGWFRQAPGLEREWVSTISSNGDDTVYADSVKGRFTISRDNAKNTVYLQMDSLKPEDTAVYYCARSFRWSRLPRDYDSWGQGTQVTVS"}, "B2": {"name": "CoV2-YD-3 (antibody, V domains shown)", "VH": "QVQLVESGGGLVQAGGSLRLSCVASTTWFSNFGMGWYRQAPGKQRELVAGITYDGTTKYVDSVKGRSTIARDNAKNTVSLQMNSVKPGDTAIYYCNTYPSQLWNWGQGTQVTVS"}, "B3": {"name": "CoV2-YD-7 (antibody, V domains shown)", "VH": "QVQLVESGGGLVQPGGSLRLSCTASVHPFSIYDMGWYRQAPGKQRVLVASISSDGTTDYADSVKGRFTISRDNAKNTVYLQMDSLKPEDTAVYYCNLAYVTWGQGTQVTVS"}, "B4": {"name": "CoV2-YD-9 (antibody, V domains shown)", "VH": "QVQLVESGGGLVQAGGSVRLSCAASGITFSNYASQWFRQTPGKAREFVAAISGGGTTSYAASVKGRFTLSRDNAKNTVYLQMNDLKFEDTAVYYCHTADLYSDYWGQGTQVTVS"}, "B5": {"name": "CoV2-YD-6 (antibody, V domains shown)", "VH": "QVQLVESGGGSVQVGGSLRLSCAASGMTFSSATMAWYRQAPGKQREWVAGIGSGGRTSYASSMKGRFTISRDNAKNTVYLQMNSLKPEDTAVYYCYTALLSGGDYWGQGTQVTVS"}, "B6": {"name": "CoV2-YD-33 (antibody, V domains shown)", "VH": "DVQLVESGGGLVQAGGSLRLSCVASGSTDSNYVMGWHRQTSGKQSEWVASIESGGEKKIVDSVKGRFTISRDNAKNTVYLQMNSLKPEDTAVYYCFYERLAWDTSTYWGQGTQVTVS"}, "B7": {"name": "CoV2-YD-34 (antibody, V domains shown)", "VH": "B6 VH with H37Y, S45R, E52N, K57T, K58R, I59S, V60A, V63E, R71G, A91G"}, "B8": {"name": "CoV2-YD-8 (antibody, V domains shown)", "VH": "QVQLVESGGGLVQPGGSLSLSCAASGSMNSMNPMGWYRQAPGKEREVVARISSGGSTTYTDSVKGRFTISRDSAKNTVYLQMNSLKPDDTAVYYCYIIDDYGVQYWGKGTQVTVS"}}, "note": "Numbering of substitutions follows the chain as printed."}
{"molecular_target": "SARS-CoV-2 Spike S1 (Wuhan; S1 or RBD) (Severe acute respiratory syndrome …, UniProt P0DTC2)", "test": "SPR", "units": {"Kd": "nM"}}
{"binder": "B1", "Kd": 3.68}
{"binder": "B2", "Kd": 0.0409}
{"binder": "B3", "Kd": 3.24}
{"binder": "B4", "Kd": 0.0164}
{"binder": "B5", "Kd": 2.91}
{"binder": "B6", "Kd": 3.54}
{"binder": "B7", "Kd": 0.541}
{"binder": "B8", "Kd": 0.126}
